Laboratory results as given in article PMC3030633 (Journal of molecular biology, 2010).
No end group written: not given here. fluorescein = fluorescein label on the C-terminus of the peptide; Me3 = trimethyl-lysine

How the values were obtained:
[1] = biological target: the histone peptide containing H3K4me3; assay: ITC + fluorescence polarisation
[2] = biological target: PHF2 (1-451), containing both the PHD and Jumonji domains (human, UniProt O75151 1-451); assay: fluorescence polarisation
Sequence of PHF2 (1-451), containing both the PHD and Jumonji domains (human, UniProt O75151 1-451) (O75151 1-451): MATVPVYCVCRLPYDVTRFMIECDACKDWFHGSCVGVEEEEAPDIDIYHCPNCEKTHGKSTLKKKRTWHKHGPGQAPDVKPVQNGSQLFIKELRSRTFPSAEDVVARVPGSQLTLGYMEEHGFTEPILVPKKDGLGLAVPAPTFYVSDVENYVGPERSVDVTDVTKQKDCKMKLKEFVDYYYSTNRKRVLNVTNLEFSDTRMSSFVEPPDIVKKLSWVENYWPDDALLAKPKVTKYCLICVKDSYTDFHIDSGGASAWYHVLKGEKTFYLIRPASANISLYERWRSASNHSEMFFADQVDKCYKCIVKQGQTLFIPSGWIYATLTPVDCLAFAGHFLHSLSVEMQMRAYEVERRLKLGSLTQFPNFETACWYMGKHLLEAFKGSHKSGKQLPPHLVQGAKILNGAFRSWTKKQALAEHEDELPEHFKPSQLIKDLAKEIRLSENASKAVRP

Sequence of PHF2 (1-451), containing both the PHD and Jumonji domains (from UniProt O75151 1-451) (domain or fragment) (O75151 1-451): as above

Molecule | Kd [1] | binding result [2]
PHF2 (1-451), containing both the PHD and Jumonji domains (from UniProt O75151 1-451) (domain or fragment) | 230 to 270 nM | –
ARTK(Me3)QTARKSTGGKA-fluorescein (peptide, UniProt P68431 2-16, looked up) [H3(1-15)K4me3 peptide, C-terminal fluoresceinated] | – | binds
